Data from patent US8480647B2, “Delivery device for delivering bioactive agents to internal tissue in a body” (Bioprotect Ltd., priority 2007, dated 2013).

Legend:
[1] = Release of loaded agents from poly(caprolactone-L-lactide)/PEG porogen balloons; type: physicochemical; details: for period of constant release from balloon: loaded with 10% w/v solution
Experimental: In a typical experiment, dichloromethane solutions of poly(caprolactone-L-lactide) 70:30 w/w, Mw=100,000 and polyethylene glycol Mw=400 (PEG400) and PEG2000 mixed at a 1, 5, 10 and 20 w/w % per polymer were used for producing balloons by dipping as described above. The balloons were immersed in water to allow the leach-out of the water soluble PEG. The balloons were analyzed for pore size, uniformity of pores throughout the membrane, and diffusion of LHRH hormone and BSA (bovine serum albumin) as representative protein. Uniform micron size holes of a similar size were generated for the 1 and 5% PEG but more holes for the 5%, while the 20% PEG generated much larger holes throughout the wall which also affects the strength of the wall. […] The balloon remain inflated for about 4 months in 0.1M phosphate buffer solution at 37° C. before signs of degradation occur measured by a significant decrease in molecular weight and change in the flexibility and clarity of the balloons. In a continuation experiment, lyophilized powder of LHRH (10 mg) on dextrose (100 mg) was dispersed in glycerol (100 mg) and injected into the 10 mm diameter balloon and release under physiological conditions was determined.

[2] = Release from L-PLA-co PEG5000 hydrogel-wall balloons in aqueous media; type: physicochemical; details: 1 cm balloons of L-PLA-co PEG5000 triblock or 50:50 mixture with L-PLA, 200 and 300 micron wall thicknesses
Experimental: In a similar experiment, biodegradable balloons of 1 cm diameter were prepared from triblock copolymers of L-PLA-co PEG5000, Mw=80,000 or in a 50:50 mixture with L-PLA Mw=120,000 by the solvent casting on a gelatin mold method. Balloons with 200 and 300 micron wall thicknesses were prepared. These balloons swell when inserted in aqueous media to form hydrogel walls which are permeable to water soluble molecules.

| Compound | release behaviour in comparison with the other loaded agents ([1]; poly(caprolactone-L-lactide)/PEG balloons) | release from hydrogel-wall balloons [2] | period of constant release from balloon ([1]; 5% PEG balloons of poly(caprolactone-L-lactide) 70:30) | period of constant release from balloon ([1]; 20% PEG balloons of poly(caprolactone-L-lactide) 70:30) | release of native LHRH from balloon, determined by HPLC ([1]; lyophilized LHRH (10 mg) on dextrose (100 mg) dispersed in glycerol (100 mg), 10 mm diameter balloon, physiological conditions) |
| --- | --- | --- | --- | --- | --- |
| O=c1[nH]cc(F)c(=O)[nH]1 [5-FU] | released much faster for a shorter time period at a zero order profile | constantly release at high amounts for weeks | – | – | – |
| CN(Cc1cnc2nc(N)nc(N)c2n1)c1ccc(C(=O)N[C@@H](CCC(=O)O)C(=O)O)cc1 [methotrexate] | – | constantly release at high amounts for weeks | – | – | – |
| LHRH: LHRH hormone, therapeutic peptide loaded in the balloon | – | released at low concentrations over time | a few months | weeks | constantly released for weeks |
